Measured values published in article PMC12183636, “Ion channel function of polycystin‐2/polycystin‐1 heteromer revealed by structure‐guided mutagenesis” (Febs Letters, 2025).

Target: T1, polycystin-2 L677A N681A, HA-tagged (human, UniProt Q13563 1-968, L677A | N681A)
T1 sequence (looked up): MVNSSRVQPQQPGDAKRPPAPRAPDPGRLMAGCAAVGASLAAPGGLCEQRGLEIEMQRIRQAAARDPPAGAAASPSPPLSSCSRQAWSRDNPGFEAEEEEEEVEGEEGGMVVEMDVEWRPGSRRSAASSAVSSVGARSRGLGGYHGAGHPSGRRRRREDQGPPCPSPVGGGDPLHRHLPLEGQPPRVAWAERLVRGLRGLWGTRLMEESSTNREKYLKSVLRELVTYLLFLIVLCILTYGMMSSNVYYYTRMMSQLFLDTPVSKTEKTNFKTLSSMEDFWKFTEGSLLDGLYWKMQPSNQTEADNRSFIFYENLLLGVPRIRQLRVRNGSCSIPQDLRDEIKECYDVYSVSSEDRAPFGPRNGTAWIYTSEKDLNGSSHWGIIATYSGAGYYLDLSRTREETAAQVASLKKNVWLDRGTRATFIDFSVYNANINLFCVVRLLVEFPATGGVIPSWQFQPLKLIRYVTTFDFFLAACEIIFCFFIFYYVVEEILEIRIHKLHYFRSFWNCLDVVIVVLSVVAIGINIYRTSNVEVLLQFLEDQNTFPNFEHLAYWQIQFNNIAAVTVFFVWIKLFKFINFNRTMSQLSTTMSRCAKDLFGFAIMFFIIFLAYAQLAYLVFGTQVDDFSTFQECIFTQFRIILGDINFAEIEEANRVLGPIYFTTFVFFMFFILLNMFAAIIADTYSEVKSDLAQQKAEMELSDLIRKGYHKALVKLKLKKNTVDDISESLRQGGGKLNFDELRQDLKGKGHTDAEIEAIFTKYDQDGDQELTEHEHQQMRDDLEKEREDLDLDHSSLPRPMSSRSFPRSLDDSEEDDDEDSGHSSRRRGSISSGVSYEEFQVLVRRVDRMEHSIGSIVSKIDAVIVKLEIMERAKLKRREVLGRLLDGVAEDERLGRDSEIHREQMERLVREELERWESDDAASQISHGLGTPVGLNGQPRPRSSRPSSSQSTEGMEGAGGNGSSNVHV
Test: cell-based or functional assay

PC2/PC1 molar ratio of injected cRNA (2.5 pmol PC2 AA, 0.77 pmol PC1-CTF AAA) at which the shift of the reversal potential saturated: 3.2 PC2 per PC1 (molar ratio of cRNA)
B1: C-terminal fragment of polycystin-1 R4100A R4107A H4111A (PC1-CTF AAA), V5-tagged (domain or fragment, human, UniProt P98161 3049-4303, looked up)
chain: TAFGASLFVPPSHVRFVFPEPTADVNYIVMLTCAVCLVTYMVMAAILHKLDQLDASRGRAIPFCGQRGRFKYEILVKTGWGRGSGTTAHVGIMLYGVDSRSGHRHLDGDRAFHRNSLDIFRIATPHSLGSVWKIRVWHDNKGLSPAWFLQHVIVRDLQTARSAFFLVNDWLSVETEANGGLVEKEVLAASDAALLRFRRLLVAELQRGFFDKHIWLSIWDRPPRSRFTRIQRATCCVLLICLFLGANAVWYGAVGDSAYSTGHVSRLSPLSVDTVAVGLVSSVVVYPVYLAILFLFRMSRSKVAGSPSPTPAGQQVLDIDSCLDSSVLDSSFLTFSGLHAEQAFVGQMKSDLFLDDSKSLVCWPSGEGTLSWPDLLSDPSIVGSNLRQLARGQAGHGLGPEEDGFSLASPYSPAKSFSASDEDLIQQVLAEGVSSPAPTQDTHMETDLLSSLSSTPGEKTETLALQRLGELGPPSPGLNWEQPQAARLSRTGLVEGLRKRLLPAWCASLAHGLSLLLVAVAVAVSGWVGASFPPGVSVAWLLSSSASFLASFLGWEPLKVLLEALYFSLVAKRLHPDEDDTLVESPAVTPVSARVPRVRPPHGFALFLAKEEARKVKRLHGMLRSLLVYMLFLLVTLLASYGDASCHGHAYRLQSAIKQELHSRAFLAITRSEELWPWMAHVLLPYVHGNQSSPELGPPRLRQVRLQEALYPDPPGPRVHTCSAAGGFSTSDYDVGWESPHNGSGTWAYSAPDLLGAWSWGSCAVYDSGGYVQELGLSLEESRDRLRFLQLHNWLDNRSRAVFLELTRYSPAVGLHAAVTLRLEFPAAGRALAALSVRPFALRRLSAGLSLPLLTSVCLLLFAVHFAVAEARTWHREGRWRVLRLGAWARWLLVALTAATALVRLAQLGAADRQWTRFVRGRPRRFTSFDQVAQLSSAARGLAASLLFLLLVKAAQQLRFVRQWSVFGKTLCRALPELLGVTLGLVVLGVAYAQLAILLVSSCVDSLWSVAQALLVLCPGTGLSTLCPAESWHLSPLLCVGLWALRLWGALALGAVILAWRYAALRGELYRPAWEPQDYEMVELFLRRLRLWMGLSKVKEFRHKVRFEGMEPLPSRSSRGSKVSPDVPPPSAGSDASHPSTSSSQLDGLSVSLGRLGTRCEPEPSRLQAVFEALLTQFDRLNQATEDVYQLEQQLHSLQGRRSSRAPAGSSRGPSPGLRPALPSRLARASRGVDLATGPSRTPLRAKNKVHPSST
